IL-2 release, mouse CD137 DO11.10 T cell activation assay, Protein L: +XL EC50 and IL-2 release, mouse CD137 DO11.10 T cell activation assay, Protein L: +XL Emax data for one substance are collected here from patent US20250084176A1.

The target of the assay is mouse CD137, full length, on cells (mouse) (UniProt P20334). Put plainly: cell-based or functional assay.
Chain of mouse CD137, full length, on cells (mouse) (P20334 24-256): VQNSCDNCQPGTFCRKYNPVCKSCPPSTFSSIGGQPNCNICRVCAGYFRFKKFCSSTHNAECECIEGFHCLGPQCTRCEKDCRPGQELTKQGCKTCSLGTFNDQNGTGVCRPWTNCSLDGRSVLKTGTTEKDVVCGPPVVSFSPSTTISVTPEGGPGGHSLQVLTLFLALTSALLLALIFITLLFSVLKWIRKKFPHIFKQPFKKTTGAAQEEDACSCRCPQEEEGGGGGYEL

As for G1-AA/Lob12.3 (antibody), the IL-2 release, mouse CD137 DO11.10 T cell activation assay, Protein L: +XL EC50 is 2.26 nM and the IL-2 release, mouse CD137 DO11.10 T cell activation assay, Protein L: +XL Emax worked out at 21300 pg/mL.
